This series can be described thus: self-splicing fitness, log relative to wild type (ln ratio); higher = more splicing; Tetrahymena group I intron in knt gene, E. coli kanamycin selection, DiMSum; sequences stand for … in CUCUCU…GGAGGGAAAAGUUAUCAGGCAUGCACCUGGUAGCUAGUCUUUAAACCAAUAGAUUGCAUCGGUUUAAAAGGCAAGACCGUCAAAUUGCGGGAAAGGGGUCAACAGCCGUUCAGUACCAAGUCUCAGGGGAAACUUUGAGAUGGCCUUGCAAAGGGUAUGGUAAUAAGCUGACGGACAUGGUCCUAACCACGCAGCCAAGUCCUAAGUCAACAGAUCUUCUGUUGAUAUGGAUGCAGUUCACAGACUAAAUGUCGGUCGGGGAAGAUGUAUUCUUCUCAUAAGAUAUAGUCGGACCUCUCCUUAAUGGGAGCUAGCGGAUGAAGUGAUGCAACACUGGAGCCGCUGGGAACUAAUUUGUAUGCGAAAGUAUAUUGAUUAGUUUUGGAGUACUCGUGGUCG
The method in brief:
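A randomised library covering all eight P1ex-region intron nucleotides was built with the intron in the knt kanamycin-resistance gene on pET-22b(+) and held in E. coli BL21(DE3). Cells were grown overnight at 37°C or 30°C on LB agar, with or without 25 μg/mL kanamycin, plus 100 μg/mL carbenicillin, 50 μM IPTG and 0.2% rhamnose, and pooled colonies were amplicon-sequenced on an Illumina HiSeq 2500. DiMSum fitness is the error-weighted combination of wild-type-normalised replicate fold changes, kanamycin versus none.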

± gives the uncertainty stated by the source.

As to CCCGAGCAAUAUUACGAUGG, the “self-splicing fitness (ln)” value was -3.39 ± 0.16 (30 °C) and -1.28 ± 0.13 (37 °C). The like results for AGCUAGCAAUAUUACGGGGU were, in that order, -2.6 ± 0.16 and -2.13 ± 0.18.

For the sequence CUAGAGCAAUAUUACGCGGC, the “self-splicing fitness (ln)” value (30 °C) was -0.707 ± 0.19 and the “self-splicing fitness (ln)” value (37 °C) was determined as 0.756 ± 0.2.

As to GGGGAGCAAUAUUACGUACG, the “self-splicing fitness (ln)” value by setting is: (30 °C) -1.76 ± 0.16; (37 °C) -0.525 ± 0.18. As for AUUGAGCAAUAUUACGUCUU, the “self-splicing fitness (ln)” value is -1.39 ± 0.12 (30 °C) and -0.607 ± 0.14 (37 °C).

Regarding UUCUAGCAAUAUUACGAUAA, the “self-splicing fitness (ln)” value (30 °C) was -1.46 ± 0.16 and the “self-splicing fitness (ln)” value (37 °C) was -0.147 ± 0.19. For CUCCAGCAAUAUUACGCGUA, the “self-splicing fitness (ln)” value (37 °C) is -2.56 ± 0.25. Regarding UACCAGCAAUAUUACGUUAC, the “self-splicing fitness (ln)” value reads like this: (30 °C) -2.83 ± 0.3; (37 °C) -2.26 ± 0.21. The like results for ACUUAGCAAUAUUACGUAGA were, in that order, -3.26 ± 0.13 and -1.59 ± 0.11.

For GUUCAGCAAUAUUACGCACC, the “self-splicing fitness (ln)” value is, setting by setting: (30 °C) -1.33 ± 0.13; (37 °C) -0.136 ± 0.21.

For the sequence GGUCAGCAAUAUUACGAUAC, the “self-splicing fitness (ln)” value by setting is: (30 °C) -1.32 ± 0.16; (37 °C) -1.59 ± 0.19. As to AGGCAGCAAUAUUACGACAG, the “self-splicing fitness (ln)” value (30 °C) is -1.61 ± 0.18 and the “self-splicing fitness (ln)” value (37 °C) is -1.54 ± 0.23.

In the case of GUGCAGCAAUAUUACGCAUU, the “self-splicing fitness (ln)” value (37 °C) was -2.38 ± 0.2. Consider CCGCAGCAAUAUUACGUUCG, for which the “self-splicing fitness (ln)” value is, setting by setting: (30 °C) -0.778 ± 0.056; (37 °C) -0.0727 ± 0.077. Take AGUCAGCAAUAUUACGUGAA: the “self-splicing fitness (ln)” value runs as follows: (30 °C) -1.5 ± 0.065; (37 °C) -1.09 ± 0.082. On to CGUUAGCAAUAUUACGUUCG, for which the “self-splicing fitness (ln)” value by setting is: (30 °C) -1.38 ± 0.091; (37 °C) -1.02 ± 0.13. As for GGGUAGCAAUAUUACGACGC, the “self-splicing fitness (ln)” value runs as follows: (30 °C) -1.08 ± 0.14; (37 °C) 0.108 ± 0.25. Turning to GCUGAGCAAUAUUACGAGUU, the “self-splicing fitness (ln)” value reads like this: (30 °C) -2.73 ± 0.13; (37 °C) -0.949 ± 0.12. For GCACAGCAAUAUUACGUGUA the same measures were -1.03 ± 0.052 and -0.512 ± 0.056. For UAACAGCAAUAUUACGAAUU the same measures were -3.02 ± 0.13 and -1.86 ± 0.18. Take UACUAGCAAUAUUACGACCG: the “self-splicing fitness (ln)” value reads like this: (30 °C) -0.634 ± 0.13; (37 °C) 0.287 ± 0.16. Turning to UUAGAGCAAUAUUACGUUAA, the “self-splicing fitness (ln)” value is -1.9 ± 0.13 (30 °C) and -0.197 ± 0.15 (37 °C). Regarding GAAGAGCAAUAUUACGACCA, the “self-splicing fitness (ln)” value is, setting by setting: (30 °C) -1.34 ± 0.14; (37 °C) -1.46 ± 0.36. Turning to CGCGAGCAAUAUUACGUCCU, for the setting “37 °C”, the “self-splicing fitness (ln)” value is -1.69 ± 0.48. UACAAGCAAUAUUACGCCGU: the “self-splicing fitness (ln)” value by setting is: (30 °C) -2.13 ± 0.16; (37 °C) -1.62 ± 0.18. For AUGCAGCAAUAUUACGUGUG the same measures were -2.45 ± 0.071 and -1.44 ± 0.085. For ACAUAGCAAUAUUACGCAUG the same measures were -2.85 ± 0.13 and -1.15 ± 0.12. The like results for CCAAAGCAAUAUUACGUUUU were, in that order, -3.91 ± 0.14 and -2.75 ± 0.17.

With GCGAAGCAAUAUUACGGAAU, the “self-splicing fitness (ln)” value runs as follows: (30 °C) -3.17 ± 0.13; (37 °C) -1.73 ± 0.13. For the sequence GUAGAGCAAUAUUACGGCCU, the “self-splicing fitness (ln)” value is -0.447 ± 0.11 (30 °C) and -0.0153 ± 0.14 (37 °C). Regarding GACGAGCAAUAUUACGUAAU, the “self-splicing fitness (ln)” value was -2.61 ± 0.34 (30 °C) and -2.16 ± 0.17 (37 °C).

As for AUCAAGCAAUAUUACGGCUG, the “self-splicing fitness (ln)” value (30 °C) was -0.736 ± 0.071 and the “self-splicing fitness (ln)” value (37 °C) was -0.0189 ± 0.11.

UUACAGCAAUAUUACGACGA: the “self-splicing fitness (ln)” value was -0.196 ± 0.077 (30 °C) and 0.136 ± 0.12 (37 °C). In the case of AGAUAGCAAUAUUACGAUCU, the “self-splicing fitness (ln)” value runs as follows: (30 °C) -1.53 ± 0.14; (37 °C) -0.462 ± 0.17. The like results for AGAUAGCAAUAUUACGCUCG were, in that order, -0.0589 ± 0.11 and -0.37 ± 0.12. Consider AAAGAGCAAUAUUACGCUGU, for which the “self-splicing fitness (ln)” value reads like this: (30 °C) -3.2 ± 0.15; (37 °C) -1.88 ± 0.16. As for CUAUAGCAAUAUUACGUUUU, the “self-splicing fitness (ln)” value is -3.44 ± 0.16 (30 °C) and -2.61 ± 0.21 (37 °C). CUCGAGCAAUAUUACGCUAU: the “self-splicing fitness (ln)” value reads like this: (30 °C) -2.92 ± 0.26; (37 °C) -2.8 ± 0.26.
